± gives the uncertainty stated by the source.
Experiment: protein stability index of a GFP-peptide fusion (yeast GPS) (PSI 1-4); higher = more stable; sorted into four equal gates, so the index is relative within each strain
Procedure, shortened: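 Plasmids in a pooled yeast library fused tiled 17-residue yeast protein peptides downstream of GFP and also expressed Cherry. Mid-log cultures grown without leucine were sorted into four equal gates by GFP/Cherry fluorescence ratio. Each gate's plasmids were PCR-amplified and Illumina-sequenced, and reads were matched to strains by barcodes. The protein stability index is derived by multiplying each gate's read frequency by its gate number and summing the results.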

Sequence	protein stability index (doa10∆)	protein stability index (pdr5∆)	protein stability index (san1∆)	protein stability index (ubr1∆)
TKKKSKFMTNSTAFVPT [ARP9]	2.65 ± 0.054	2.79 ± 0.045	2.47 ± 0.058	2.77 ± 0.038
TKLDQVWGSETVASSKV [RPL4A]	2.72 ± 0.075	3 ± 0.1	2.84 ± 0.05	2.98 ± 0.044
TKLGFTFTIKEFVSYYY [SNU114]	1.88 ± 0.054	2.02 ± 0.054	1.73 ± 0.067	1.76 ± 0.041
TKLIGVLILLHAERDLA [SRP68]	1.28 ± 0.078	2.26 ± 0.17	2.48 ± 0.088	2.78 ± 0.098
TKPFENVEKYPTFVEFI [SNU114]	2.7 ± 0.23	3.02 ± 0.1	2.87 ± 0.11	2.86 ± 0.11
TKQIQSVRIDGRKVLQK [SIR4]	2.32 ± 0.06	2.48 ± 0.055	2.03 ± 0.069	2.02 ± 0.04
TKRQKHFAWLPTHIWNA [POP1]	2.03 ± 0.031	1.82 ± 0.036	1.55 ± 0.05	1.74 ± 0.021
TKRVEKPQLKFKSPIDN [RRP6]	2.88 ± 0.052	3.03 ± 0.061	3.02 ± 0.039	3.137 ± 0.03
TKSKEQLASQLVDLKKE [RPL35A]			3.12 ± 0.098	3.2 ± 0.17
TKVLNMKPSEILSLIEE [SMC2]	2.86 ± 0.23	3.3 ± 0.17	3 ± 0.24	2.9 ± 0.11
TKVNNQLIKVAVHNGGR [RPL9A]	1.92 ± 0.074	1.52 ± 0.06	1.78 ± 0.086	2.4 ± 0.029
TLDDLVTKWTNQLTESA [YJL041W/NSP1]	2.76 ± 0.1	3 ± 0.099	2.85 ± 0.076	3.05 ± 0.061
TLILIQNPENLLSEKIL [SIR3]	2.98 ± 0.062	2.88 ± 0.07	2.87 ± 0.046	3.16 ± 0.06
TLKIHLKKFLQEKMDPN [IRR1]	2.86 ± 0.1	3.01 ± 0.08	3.08 ± 0.084	2.82 ± 0.099
TLKKNNVAVDIINFGEI [RPN10]	2.97 ± 0.081	3.01 ± 0.092	3.02 ± 0.1	2.74 ± 0.063
TLLKNLRKKLNFKLCQA [YJR042W/NUP85]	2.01 ± 0.12	2.12 ± 0.097	1.13 ± 0.23	
TLLPGLQDEVMNIKPVQ [RPS2]	1.21 ± 0.14	1.35 ± 0.13	1.18 ± 0.26	1.09 ± 0.14
TLLRLNELLDLTESQTE [RPN5]	2.39 ± 0.089	2.18 ± 0.092	2.71 ± 0.11	2.74 ± 0.072
TLLWNKNDKLIKIEDFV [SNF5]	1.8 ± 0.081	1.74 ± 0.066	1.55 ± 0.095	1.83 ± 0.036
TLPEKKQFDSIFNSNKA [SIR4]	2.71 ± 0.042	2.77 ± 0.045	2.82 ± 0.034	2.8 ± 0.035
TLRCSVVEACGNIVAEL [YCS4]	1.87 ± 0.095	2.19 ± 0.093	2.17 ± 0.15	1.55 ± 0.062
TLSNGLIASHYGVSFFT [BRR2]	2.74 ± 0.055	2.84 ± 0.045	2.39 ± 0.059	2.83 ± 0.04
TLSTHSTTTSVNGSTTA [SIN4]	2.79 ± 0.043	3.04 ± 0.038	3.114 ± 0.03	2.93 ± 0.031
TLVAQNLKQANNVAYGK [SMC4]	2.8 ± 0.1	2.92 ± 0.089	2.87 ± 0.062	3 ± 0.067
TLVGGGAKITPEMIKRS [RRP43]		3.29 ± 0.29	2.74 ± 0.22	
TMLELLNQLDGFETSKN [RPT6]	2.92 ± 0.13	3.13 ± 0.11	2.63 ± 0.2	2.84 ± 0.087
TNAGYTIELAGGGYFSA [FAS1]	2.39 ± 0.078	2.28 ± 0.088	1.72 ± 0.11	2.09 ± 0.068

Sequence	protein stability index (doa10∆)	protein stability index (pdr5∆)	protein stability index (san1∆)	protein stability index (ubr1∆)
TNDGIERYSDKYLKKRK [RPC31]	3.23 ± 0.13	2.98 ± 0.18	3.43 ± 0.15	2.88 ± 0.091
TNENGETDDNIETVMTQ [SRB4]	2.79 ± 0.099	2.53 ± 0.076	2.44 ± 0.089	2.5 ± 0.074
TNFNEITNTDETITTKR [SWP82]	3.13 ± 0.058	3.25 ± 0.061	3.08 ± 0.067	3.32 ± 0.045
TNIRRIIQDNISPRLVV [RRP46]	1.58 ± 0.037	1.69 ± 0.041	1.75 ± 0.07	1.82 ± 0.03
TNLYKLKEERAIEPETF [PUP3]	3.16 ± 0.12	2.97 ± 0.13	3.45 ± 0.066	3.25 ± 0.097
TNPKLKSEFDDLSLNIH [YMR129W/POM152]	2.96 ± 0.071	3.14 ± 0.056	3.02 ± 0.038	3.17 ± 0.05
TNQIFQSRRYNLRRHSD [SIN4]	2.94 ± 0.045	3.18 ± 0.04	3.04 ± 0.045	3.08 ± 0.031
TNQLVLLQKMLNLLNYQ [YML103C/NUP188]	1.99 ± 0.04	1.43 ± 0.03	1.29 ± 0.056	1.43 ± 0.031
TNSNNTPLQSQLNLNNL [PGD1]	3.01 ± 0.071	3.01 ± 0.059	3 ± 0.043	3.05 ± 0.042
TNTFEGSGNNNEIESRQ [SNU114]		3.48 ± 0.17	3.25 ± 0.11	
TNWDDHAIIIFGYPETI [YMR153W/NUP53]	2.45 ± 0.062	2.63 ± 0.048	2.3 ± 0.077	2.71 ± 0.038
TPAEMSRPATTTRNGFM [FAS2]	2.35 ± 0.038	2.57 ± 0.041	2.52 ± 0.05	2.52 ± 0.042
TPESVKPANASHAIRLG [RGR1]	2.63 ± 0.049	2.42 ± 0.037	2.98 ± 0.045	2.47 ± 0.039
TPFSFGTANNNSNTTNQ [YJL041W/NSP1]	3.25 ± 0.054	3.21 ± 0.045	3.13 ± 0.035	3.09 ± 0.041
TPGSVSLSAYNLTDEGY [PRP8]	2.23 ± 0.15	2.5 ± 0.077	2.3 ± 0.094	1.96 ± 0.21
TPLKARQREMAEEQTKL [YLR018C/POM34]	3.33 ± 0.08	3.36 ± 0.093	3.31 ± 0.053	3.41 ± 0.056
TPLQSQLNLNNLTPANI [PGD1]	2.98 ± 0.064	3.11 ± 0.053	2.99 ± 0.039	3.01 ± 0.04
TPLRDEVTDKNYYYLFD [PRP8]	2.98 ± 0.068	2.55 ± 0.049	3.03 ± 0.048	3.11 ± 0.059
TPMDESSYDLLFNESFI [SRP72]	3.07 ± 0.1	2.98 ± 0.1	2.7 ± 0.1	3.12 ± 0.052
TPRGNHWMGSSVSGSPR [YMR129W/POM152]	3.25 ± 0.077	3.39 ± 0.077	3.01 ± 0.053	3.13 ± 0.064
TPSTEESRAQNVFGQDN [SWI3]	2.58 ± 0.092	2.77 ± 0.093	3.35 ± 0.054	2.55 ± 0.048
TPVSHNDDLYGKVTDVR [RPL1A]	3.04 ± 0.091	3.04 ± 0.096	2.81 ± 0.067	3.12 ± 0.084
TPVVLATPIPEEVQQAQ [RPS5]	2.55 ± 0.099	2.43 ± 0.16	3.1 ± 0.1	2.83 ± 0.13
TPYSNESGLVNADLDVK [RPO21]	2.75 ± 0.054	2.96 ± 0.073	3.02 ± 0.056	2.87 ± 0.046
TQAKRIFLQQFLQELLK [SWI1]	2.62 ± 0.072	2.42 ± 0.092	2.43 ± 0.082	2.1 ± 0.064
TQKTELEIDNKDSVTEC [SIR4]	1.74 ± 0.061	3.15 ± 0.12	2.78 ± 0.14	2.5 ± 0.085
TQLDDLQHELMISIIKL [YML103C/NUP188]		2.29 ± 0.1	2.19 ± 0.28	2.51 ± 0.093

Sequence	protein stability index (doa10∆)	protein stability index (pdr5∆)	protein stability index (san1∆)	protein stability index (ubr1∆)
TQMDGFDQSTNVKVIMA [RPT3]	2.28 ± 0.062	2.35 ± 0.06	1.54 ± 0.077	2.31 ± 0.061
TQTFNGSIFTHETTFMT [YML031W/NDC1]	2.86 ± 0.063	2.79 ± 0.066	2.84 ± 0.035	2.89 ± 0.047
TQYKAGKASLFAQGKRR [RPL42A]	3.35 ± 0.089	3.04 ± 0.07	3.1 ± 0.097	3.14 ± 0.1
TRAKAKVEEMNNIIAAS [RPL36A]		3.18 ± 0.14		
TRAQYLAFAKLVHSEYL [SRP68]	1.58 ± 0.08	1.87 ± 0.063	1.47 ± 0.094	1.79 ± 0.052
TRDVEPENLQVTSEKYP [BRR2]	2.75 ± 0.1	3.35 ± 0.18		3.13 ± 0.11
TREKVLEDKLRAVLTPL [RRP46]	2.89 ± 0.17	3.05 ± 0.11	2.91 ± 0.19	2.82 ± 0.11
TRKILEILNECHDELKA [MED4]	2.04 ± 0.071	2.5 ± 0.13	2.44 ± 0.085	2.71 ± 0.097
TRLKSLLKPFHVKVNDK [SIR3]	2.65 ± 0.093	2.96 ± 0.082	2.79 ± 0.075	2.81 ± 0.052
TRLVQLREFRITHNTNI [GRR1]	1.23 ± 0.11	1.16 ± 0.06	1.04 ± 0.26	1.38 ± 0.09
TRRKRRQGRSNRRGMLA [SNF5]	2.51 ± 0.13	2.71 ± 0.14	2.86 ± 0.11	2.99 ± 0.11
TSAASGDAAPAEEAAAE [RPP0]		3.44 ± 0.13	3.13 ± 0.14	3.34 ± 0.11
TSANGIVQFTYGGDGLD [RPO31]	2.68 ± 0.093	2.77 ± 0.092	2.24 ± 0.15	3.04 ± 0.064
TSAVELGAIEQILIFAA [YJL039C/NUP192]	2.13 ± 0.16	2.77 ± 0.071	1.77 ± 0.11	3.32 ± 0.13
TSELGNDDFSEVFEFKT [BRR2]	3.04 ± 0.14	3.08 ± 0.097	2.41 ± 0.083	2.7 ± 0.099
TSLATSAGQPNLLLSAS [ASC1]	2.03 ± 0.06	1.93 ± 0.06	2.03 ± 0.062	1.99 ± 0.049
TSLKCLVNRKPIPFEFQ [SNF2]	2.56 ± 0.054	2.21 ± 0.043	2.13 ± 0.053	2.19 ± 0.03
TSLLDSLISVLEASLNS [YJL039C/NUP192]	1.94 ± 0.083	1.77 ± 0.09	1.87 ± 0.19	1.58 ± 0.08
TSPTMPDYYVSILSFVD [RPT2]	2.2 ± 0.048	2.31 ± 0.05	2.27 ± 0.042	2.15 ± 0.041
TSRKALEEVSLKWIDTA [RPL3]	1.67 ± 0.098	1.89 ± 0.094	1.82 ± 0.12	1.9 ± 0.088
TSSTHERKSKTYVITKN [RET1]	2.44 ± 0.067	2.66 ± 0.08	2.3 ± 0.064	2.84 ± 0.076
TSTEKLYKLNDKIAVAV [PRE9]	2.84 ± 0.072	2.93 ± 0.081	3.1 ± 0.081	2.95 ± 0.068
TSTGIIRCHREDCDLVI [POP5]	2.67 ± 0.071	2.96 ± 0.077	2.71 ± 0.075	2.56 ± 0.066
TSTNGDSENNEENSSSN [RGR1]	2.64 ± 0.18	3.18 ± 0.11	3.36 ± 0.11	2.95 ± 0.086
TSYKKWSFDLPEMSNLY [PRP8]	2.6 ± 0.055	2.52 ± 0.05	2.26 ± 0.058	2.13 ± 0.044
